Assay results reported in patent US20250332197A1 (SUNSHINE LAKE PHARMA, published 2025).
Where a chain is given by its changes, count along the chain named.

T1: claudin-18.2 antigen (manufacturer: GenScript, batch number: R50092011) (UniProt P56856-2 1-261, limits assumed)
T1 construct: Bought antigen
T1 sequence (looked up): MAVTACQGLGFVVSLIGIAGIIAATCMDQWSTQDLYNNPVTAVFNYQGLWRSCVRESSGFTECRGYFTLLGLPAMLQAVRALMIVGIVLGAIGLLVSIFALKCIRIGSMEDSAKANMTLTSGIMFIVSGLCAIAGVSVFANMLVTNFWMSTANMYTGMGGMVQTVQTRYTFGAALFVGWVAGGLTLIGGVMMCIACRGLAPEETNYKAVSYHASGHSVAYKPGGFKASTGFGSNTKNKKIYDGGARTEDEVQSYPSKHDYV

B1: 1E7-huVH5huVL2 (antibody, human IgG4 S228P, kappa)
heavy: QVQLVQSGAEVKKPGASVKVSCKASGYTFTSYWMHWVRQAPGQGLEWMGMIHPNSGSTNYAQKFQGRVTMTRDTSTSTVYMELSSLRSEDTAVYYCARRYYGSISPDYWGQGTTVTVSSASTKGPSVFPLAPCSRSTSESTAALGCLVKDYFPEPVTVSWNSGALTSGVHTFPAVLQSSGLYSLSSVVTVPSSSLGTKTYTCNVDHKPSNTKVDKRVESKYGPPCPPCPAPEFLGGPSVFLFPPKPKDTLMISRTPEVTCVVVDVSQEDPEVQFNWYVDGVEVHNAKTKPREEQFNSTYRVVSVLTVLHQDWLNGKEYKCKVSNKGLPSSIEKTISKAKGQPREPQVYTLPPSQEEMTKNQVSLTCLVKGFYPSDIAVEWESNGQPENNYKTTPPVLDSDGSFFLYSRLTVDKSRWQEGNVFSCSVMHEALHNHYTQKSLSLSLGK
light: DIQMTQSPSSLSASVGDRVTMTCKSSQSLLNSGNQKNYLTWYQQKPGKAPKLLIYWASTRESGVPSRFSGSGSGTDFTLTISSLQPEDFATYYCQNDYSYPFTFGGGTKLEIKRTVAAPSVFIFPPSDEQLKSGTASVVCLLNNFYPREAKVQWKVDNALQSGNSQESVTEQDSKDSTYSLSSTLTLSKADYEKHKVYACEVTHQGLSSPVTKSFNRGEC
notes: humanized 1E7, human IgG4, kappa
B2: 1B6-huVH3-HC (IgG1) huVL2 (antibody)
heavy: not shown
light: B1 light with L30F, F102L
notes: humanized 1B6, human IgG1, kappa
B3: 1B6-huVH1-HC (IgG1) huVL1 (antibody)
heavy: not shown
light: B1 light with Q3V, A13V, L30F, S66D, L84V, Y93F, F102L
notes: as for B2
B4: 1B6-huVH1huVL1 (antibody, human IgG4 S228P, kappa)
heavy: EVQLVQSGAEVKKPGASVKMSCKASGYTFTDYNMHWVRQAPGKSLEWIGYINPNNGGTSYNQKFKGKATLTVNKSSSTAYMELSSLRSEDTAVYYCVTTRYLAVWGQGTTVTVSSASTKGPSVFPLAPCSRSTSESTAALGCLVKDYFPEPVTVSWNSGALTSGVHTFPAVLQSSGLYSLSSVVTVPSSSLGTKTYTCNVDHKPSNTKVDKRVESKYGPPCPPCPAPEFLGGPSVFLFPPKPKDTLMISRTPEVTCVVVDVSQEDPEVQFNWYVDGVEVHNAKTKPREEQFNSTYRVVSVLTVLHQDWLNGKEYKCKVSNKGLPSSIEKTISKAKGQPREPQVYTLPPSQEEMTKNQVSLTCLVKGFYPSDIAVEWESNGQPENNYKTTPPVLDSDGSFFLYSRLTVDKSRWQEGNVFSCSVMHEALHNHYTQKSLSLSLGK
light: B1 light with Q3V, A13V, L30F, S66D, L84V, Y93F, F102L
notes: humanized 1B6, human IgG4, kappa
B5: 1B6-huVH4-HC (IgG1) huVL3 (antibody)
heavy: not shown
light: B1 light with M21I, K24R, L30F, F102L
notes: as for B2
B6: 1B6-huVH3-HC (IgG1) huVL3 (antibody)
heavy: not shown
light: B1 light with M21I, K24R, L30F, F102L
notes: as for B2
B7: 1B6-huVH2-HC (IgG1) huVL1 (antibody)
heavy: not shown
light: B1 light with Q3V, A13V, L30F, S66D, L84V, Y93F, F102L
notes: as for B2
B8: 1B6-huVH1-HC (IgG1) huVL2 (antibody)
heavy: not shown
light: B1 light with L30F, F102L
notes: as for B2
B9: 1E7-huVH5huVL3 (antibody, human IgG4 S228P, kappa)
heavy: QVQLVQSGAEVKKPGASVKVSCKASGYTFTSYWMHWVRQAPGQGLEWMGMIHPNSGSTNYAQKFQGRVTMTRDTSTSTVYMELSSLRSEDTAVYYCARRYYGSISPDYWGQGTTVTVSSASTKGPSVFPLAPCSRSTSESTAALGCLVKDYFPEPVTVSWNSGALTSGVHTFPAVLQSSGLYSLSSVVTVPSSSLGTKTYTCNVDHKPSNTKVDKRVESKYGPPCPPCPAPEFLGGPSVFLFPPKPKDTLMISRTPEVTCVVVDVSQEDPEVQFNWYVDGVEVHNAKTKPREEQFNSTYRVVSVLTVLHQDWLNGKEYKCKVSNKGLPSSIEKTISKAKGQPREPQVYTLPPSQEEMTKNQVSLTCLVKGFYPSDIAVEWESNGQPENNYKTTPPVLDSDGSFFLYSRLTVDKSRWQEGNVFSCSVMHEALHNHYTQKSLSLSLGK
light: B1 light with M21I, K24R
notes: as for B1
B10: 1B6-huVH4-HC (IgG1) huVL2 (antibody)
heavy: not shown
light: B1 light with L30F, F102L
notes: as for B2
B11: 1B6-huVH3-HC (IgG1) huVL1 (antibody)
heavy: not shown
light: B1 light with Q3V, A13V, L30F, S66D, L84V, Y93F, F102L
notes: as for B2
B12: 1B6-huVH5-HC (IgG1) huVL2 (antibody)
heavy: not shown
light: B1 light with L30F, F102L
notes: as for B2
B13: 1B6-huVH5-HC (IgG1) huVL3 (antibody)
heavy: not shown
light: B1 light with M21I, K24R, L30F, F102L
notes: as for B2
B14: 1B6-huVH2-HC (IgG1) huVL2 (antibody)
heavy: not shown
light: B1 light with L30F, F102L
notes: as for B2

target: T1, claudin-18.2 antigen (manufacturer: …); experiment: Gator label-free kinetics, antibody loaded, antigen 2000-500 nM
Procedure: The GATOR instrument and associated software were opened and the Kinetics experimental mode was selected. After data collection, Kinetics fitting was performed to calculate the affinity kinetic parameters. The correlation coefficient R² of all antibodies in the Global fitting mode was greater than 0.95, which met the system suitability requirements and the results were reliable.

Kd | koff | kon | Binder
5.24 nM | 5.29e-05 s⁻¹ | 10100 M⁻¹ s⁻¹ | B1
10.9 nM | 0.00012 s⁻¹ | 11100 M⁻¹ s⁻¹ | B2
63.3 nM | 0.00123 s⁻¹ | 19400 M⁻¹ s⁻¹ | B3
98.8 nM | 0.00222 s⁻¹ | 22400 M⁻¹ s⁻¹ | B4
43.9 nM | 0.000799 s⁻¹ | 18200 M⁻¹ s⁻¹ | B5
9.64 nM | 0.000116 s⁻¹ | 12100 M⁻¹ s⁻¹ | B6
9.84 nM | 0.000101 s⁻¹ | 10300 M⁻¹ s⁻¹ | B7
86.7 nM | 0.00171 s⁻¹ | 19700 M⁻¹ s⁻¹ | B8
3.21 nM | 3.09e-05 s⁻¹ | 9610 M⁻¹ s⁻¹ | B9
20.5 nM | 0.000207 s⁻¹ | 10100 M⁻¹ s⁻¹ | B10
7.65 nM | 7.83e-05 s⁻¹ | 10200 M⁻¹ s⁻¹ | B11
59.7 nM | 0.00129 s⁻¹ | 21600 M⁻¹ s⁻¹ | B12
76.8 nM | 0.00175 s⁻¹ | 22700 M⁻¹ s⁻¹ | B13
11.8 nM | 0.00013 s⁻¹ | 11000 M⁻¹ s⁻¹ | B14

target: T1, claudin-18.2 antigen (manufacturer: …); experiment: ELISA, plate coated with claudin-18.2 antigen
Procedure: The ELISA plates were washed three times with PBST and blocked with 5% PBS-milk for 2 h at room temperature. The ELISA plate was washed three times with PBST, and the diluted antibodies were added to the ELISA plate, 30 μL per well, and incubated at room temperature for 60 min. The plates were washed three times with PBST and incubated with anti-human IgG-Fc-HRP (abcam, ab97225) for 50 min at room temperature. The plate was washed 12 times with PBST, and TMB was added, 30 μL per well. The reaction was terminated with stop solution and OD450 was read. The ELISA affinity EC50 was calculated.

EC50 | Binder
0.496 µg/mL | B1
0.0614 µg/mL | B2
0.0248 µg/mL | B3
0.0839 µg/mL | B4
0.0519 µg/mL | B5
0.0725 µg/mL | B6
0.0403 µg/mL | B7
0.0162 µg/mL | B8
0.0931 µg/mL | B9
0.0431 µg/mL | B10
0.0592 µg/mL | B11
0.0298 µg/mL | B12
0.035 µg/mL | B13
0.0301 µg/mL | B14
